Drawing on the supplement of paper PMC12042874, this text covers amyloid nucleation score for 99 substances.

± gives the uncertainty stated by the source.

A short description of the data set: amyloid nucleation score (Sup35N fusion, yeast selection) (log enrichment); library NNK3; higher = more nucleation; inactive = no reads after selection. The essentials: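 The nucleation score equals the log enrichment of output over input reads from DiMSum, centred on the mode score of non-aggregating sequences. It was computed only for sequences with 100 or more input reads. The reads came from Illumina sequencing of plasmid inserts from psi-negative yeast expressing Sup35N fused to peptides of 20 random codons, induced with 100 μM copper sulfate for 24 hours and grown 7 days at 30°C without adenine and uracil.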
For the substance RERIFRICVFRMTSDKMTAT, the amyloid nucleation score entry was “inactive”. TMVTTNEIT gave an amyloid nucleation score of 0.092 ± 0.29. Under KGHDAHVAVRVFTGGGLV stands “inactive”; under MTVRETLYWVRS, “inactive”. Under VLCGLARVKEVIASRRWECG stands “inactive”; under YTLPGIQAGFWARCVSHTRL, “inactive”; under KTASRCLYCLMKKKDCLPRV, “inactive”. Under KLICKERYVVYSVILVLKEL stands “inactive”.

On to VWVLGQLWFF, for which the amyloid nucleation score entry is “inactive”.

SRCIFIIVIVSGSYGFSVSN registered an amyloid nucleation score of 1.14 ± 0.13. NSFIVVIYYRVRSYRYTD: the amyloid nucleation score result was “inactive”. As for QGSRLNGIKSPLCIGLKCSR, the amyloid nucleation score result is “inactive”. Turning to RSSFVWTSRHFVV, the amyloid nucleation score result is “inactive”. SWVGTG: the amyloid nucleation score was -0.331 ± 0.84. Next, MKYYVR: “inactive”; EDHFSLHACVSSGTLSKVVY: “inactive”; VTSYYSHISYVTL: “inactive”. Under VLEMMWVD stands 0.144 ± 0.64; under FDNVISILPPYFTSFSG, “inactive”.

For FSLSCPLSDPNVACTY, the amyloid nucleation score result is “inactive”. Under VNELSFSTSF stands “inactive”; under RWAELTEQTCS, “inactive”; under KSYISVRK, 0.57 ± 0.18. Regarding RFVTRCREDSVTLKHG, the amyloid nucleation score result was “inactive”. Consider GSLCFGLDSSPSTKIYLYDS, for which the amyloid nucleation score result was “inactive”. Take VSGSEFLDFKQLVYTLDAAC: the amyloid nucleation score worked out at 0.481 ± 0.35. Next, RCYCCPRTDSLGMG: “inactive”.

For SRIFSGISPDVTDPS, the amyloid nucleation score result is “inactive”. The substance QSRSRSNARARWVVSKLSCS displayed an amyloid nucleation score of 0.21 ± 0.53. Under MTVWNSWNINIVWVMFLSA stands “inactive”. Next, RFYGYTLY: “inactive”; LVKRCVVGFTHFPTIYTCIQ: “inactive”. Regarding AFYYRVELVYLAC, the amyloid nucleation score result was “inactive”. Next, AWRSMSGVTYPQGTSLPFSK: “inactive”; DDKRTENG: “inactive”; LALLTAADARD: “inactive”. As to FFLYAVLLFTLLPSVLASGN, the amyloid nucleation score entry was “inactive”. SLFRFVDECCMNDFRLRLSC: the amyloid nucleation score result is “inactive”. Next, VWNFPNILCFGWIFRA: 1.64 ± 0.093; DGYKMCRDGIGWIGT: “inactive”; HYWQYMFYSLHFVYRS: “inactive”.

For the substance LGMVYICYYISVIVDPYSYS, the amyloid nucleation score was 0.246 ± 0.25.

In the case of TDRFNAFSWAVASGFVDFDG, the amyloid nucleation score entry was “inactive”. Under LFVASLTTCIFWA stands 2.4 ± 0.054; under CWFKLMLASMIKENTLSTYG, “inactive”; under LRTLSGNICANL, “inactive”. TFGAVTCMSRCVKSSYNLKW showed an amyloid nucleation score of 1.35 ± 0.088.

For NLLSSSFLPPGWRSLKLGSS, the amyloid nucleation score result is “inactive”. Under WYWSSNPSGTDVGIDGVRIS stands “inactive”. Substance TKNRVYQWMSLSGM showed an amyloid nucleation score of 0.828 ± 0.12. Under YPRPLFVRNLDVFHWLYTAV stands “inactive”; under MLFHDSVSSTWRIFELCSRC, “inactive”; under CSEVGRS, “inactive”. Next, VHYSWSTFFD: 0.593 ± 0.27; VLRVMCRCDCNTGFAKRESV: “inactive”. Next, YWQWSNV: “inactive”.

The substance NCVRSLCMLWTTFTCVNDLC registered an amyloid nucleation score of 2.1 ± 0.079.

REAASQIHSEDKMGGWYHRL: the amyloid nucleation score result was “inactive”. In the case of GCFSV, the amyloid nucleation score entry was “inactive”. As to KRSNISV, the amyloid nucleation score result was “inactive”. For the substance TNPLYYRS, the amyloid nucleation score entry was “inactive”. Take KQSLSMVWRKSDLALKVMVG: the amyloid nucleation score stood at 0.904 ± 0.15. Regarding KASHWV, the amyloid nucleation score entry was “inactive”.

Regarding TCAIPHLKCSFLLYFGQYGC, the amyloid nucleation score entry is “inactive”. Next, SSNYNLKTLNSISRFFDLES: “inactive”; LNMIHSVA: “inactive”. Consider VNRNFILSSLVH, for which the amyloid nucleation score entry was “inactive”. Under GLVHCNGSPAQITFKDTFNR stands “inactive”; under SNICKLFCCTESIKSQTRLW, 2.61 ± 0.082; under WIVVENW, “inactive”. Next, FDVELALWC: “inactive”. Next, NVYIVFFNFKTQ: 2.34 ± 0.058. Substance VYVAYALFRRD yielded an amyloid nucleation score of -0.333 ± 0.9. Consider NLKAM, for which the amyloid nucleation score entry was “inactive”. Next, RVSWGARVHIWCSLDLVCRF: “inactive”. Next, PFSYDLRNFNSWQIGNGGLM: “inactive”; RRNMWG: “inactive”; GPTLSGLNIAHWSNIYQDLG: “inactive”. Next, LWLVIN: “inactive”; LRGYSASSSIVCESSRYARL: “inactive”. As for YASSCDVKLMQSSPLAYEVD, the amyloid nucleation score result is “inactive”. As to FLLNLMIHLFYLVLKSRNQN, the amyloid nucleation score entry was “inactive”. On to HYCRNTGC, for which the amyloid nucleation score result was “inactive”.

For the substance STQNGYRQNEFSRSRMMAPD, the amyloid nucleation score result is “inactive”. Next, DVGTCSLLNGHKYFFRFNVV: “inactive”; VRALNTAAWLSNTRCLGMDA: “inactive”. Next, VGRAD: “inactive”; NLDLWMQSCFHRVAVYS: “inactive”. As for NLNRSLVFFSCDYAGCDGCT, the amyloid nucleation score was determined as 1.48 ± 0.077. Under YDWSVPAKSS stands “inactive”; under TCVWRHAWQSGAHRVVRLAW, “inactive”. As for VFLSSELSTLLVVYRLLGSG, the amyloid nucleation score entry was “inactive”. On to LFFFMALRVGLPNNTNMGMK, for which the amyloid nucleation score result is “inactive”. Take SFCFSNDVA: the amyloid nucleation score entry is “inactive”.

Take DSPRGV: the amyloid nucleation score result was “inactive”. Next, VERKNVLFRYHAVGFVLGDV: “inactive”; ARQTVPSCTLYYWFLSTVKY: “inactive”.

On to SRRSCYVIAYELV, for which the amyloid nucleation score result was “inactive”. With DNLGLFSVVKRSPMLSVTKE, the amyloid nucleation score entry is “inactive”.
